Measurements published in US20250326826A1 (CENTRO DE INGENIER A GEN TICA Y BIOTECNOLOG A, published 2025).
Each block holds one binder with its values, some of them ahead of it.

Assays:
[1] = molecular target: T1, Recombinant human bFGF (human, UniProt P09038 143-288, limits assumed); assay: ELISA, coated antigen
T1 construct: Bought (Sigma); also called hFGF-2; human basic fibroblast growth factor
Procedure: (§1) After one hour of incubation at 25° C. the plates were washed thoroughly. The binding of the fragment to the antigen in the solid phase was detected by the peroxidase activity using 100 μL/well of TMB. The reaction was stopped with 50 μL/well of stop solution, and absorbance values at 450 nm were determined in a microtiter plate reader.
(§2) The main characteristic of an antibody and its derived fragments is their recognition of the antigen, which determines their specificity and affinity. Specific binding to VEGF was evaluated as described in the section “ELISA for VHHs recognition of their target antigen” (Example 1). […] Nb-V1 also recognized a mutated variant of VEGF121 in the ELISA system where, in the so-called 80's loop, amino acids R82, K84 and H86 are replaced by E82, E84 and E86. It shares this property with CIGB166a, but differentiates it from Bevacizumab.
(§3) Specific binding to bFGF was evaluated as described in the bFGF recognition ELISAs of the Example 1.

[2] = molecular target: T2, GST-hVEGF121 (human, UniProt P15692-9 27-147); assay: ELISA, coated GST-hVEGF121
T2 construct: plate coating of the VEGF ELISAs; also called human VEGF; not shown: glutathione S-transferase (GST) fusion partner
T2 sequence (looked up): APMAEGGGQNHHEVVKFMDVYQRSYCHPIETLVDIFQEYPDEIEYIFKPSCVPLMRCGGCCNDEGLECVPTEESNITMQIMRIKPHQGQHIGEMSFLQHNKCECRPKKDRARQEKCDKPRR
Procedure: (§4) The 96-well plates were coated with 100 μL/well of a solution of GST-hVEGF121, GST-mVEGF120, or GST at a concentration of 20 μg/mL, or with a solution of VEGFKDR- at a concentration of 10 μg/mL, or hFGF-2 or mFGF-2 at a concentration of 5 μg/mL in 1×PBS for 16 hours at 4° C. After the plates were blocked with PBS-5% skim milk for one hour, 1:2 serial dilutions of the purified VHHs were added, starting at 2 μg/mL in PBS-0.5% skim milk. The plates were incubated for 1 hour at 37° C. and after several washes, the monoclonal antibody 9E10, specific for c-myc, was added. After one hour of incubation at 25° C. the plates were washed thoroughly. The binding of the fragment to the antigen in the solid phase was detected by the peroxidase activity using 100 μL/well of TMB. The reaction was stopped with 50 μL/well of stop solution, and absorbance values at 450 nm were determined in a microtiter plate reader.
(§5) The main characteristic of an antibody and its derived fragments is their recognition of the antigen, which determines their specificity and affinity. Specific binding to VEGF was evaluated as described in the section “ELISA for VHHs recognition of their target antigen” (Example 1). […] Nb-V1 also recognized a mutated variant of VEGF121 in the ELISA system where, in the so-called 80's loop, amino acids R82, K84 and H86 are replaced by E82, E84 and E86. […]

[3] = molecular target: T3, GST-mVEGF120 (mouse, UniProt Q00731-3 27-146); assay: ELISA, coated GST-mVEGF120
T3 construct: Produced in E. coli; also called mouse VEGF; mouse growth factor; not shown: glutathione S-transferase (GST) fusion partner
T3 sequence (looked up): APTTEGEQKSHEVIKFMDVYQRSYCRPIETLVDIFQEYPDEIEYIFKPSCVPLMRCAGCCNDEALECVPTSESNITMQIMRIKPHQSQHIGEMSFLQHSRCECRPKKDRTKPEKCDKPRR
Procedure: as §4, §5

[4] = molecular target: VEGF (soluble stimulus added to cell cultures); assay: cell-based or functional assay
[5] = molecular target: bFGF (soluble stimulus added to cell cultures); assay: cell-based or functional assay
[6] = molecular target: VEGF (soluble stimulus added to cell cultures); assay: cell-based or functional assay; remark: listed apart in the source
[7] = molecular target: Human VEGF (dendritic cell assay) (human, UniProt P15692-4 27-191, limits assumed); assay: cell-based or functional assay
[8] = molecular target: T2, GST-hVEGF121; assay: ELISA, coated GST-hVEGF
Procedure: as §4

[9] = molecular target: T2, GST-hVEGF121; assay: ELISA, coated GST-hVEGF121, detection with anti-c-myc 9E10
Procedure: as §4, §5

[10] = molecular target: T2, GST-hVEGF121; assay: competition ELISA, coated GST-hVEGF, competitor Fc-VEGFR2
Procedure: (§6) The ability of VHHs to hinder receptors for binding to their ligand was assessed by ELISA, for which 96-well plates (NUNC, USA) were coated with GST-hVEGF or bFGF and blocked as described in the previous section. Serial 1:2 dilutions of the purified VHHs, from […] to […], were added and the plates and incubated for 1 h at 37° C. In this step, some wells were left where only PBS-milk was added. […] After 45 min incubation at 37° C., plates were washed with PBS-0.05% Tween. To detect receptor binding, HRP-conjugated anti-human IgG antibody was added, diluted 1:5000 in PBS-0.5% milk. After incubation for 1 h at 37° C., the plates were washed with PBS-Tween, and TMB was added. The reaction was stopped after 10 min. Wells incubated with the receptors without the addition of the antibody fragments were taken as reference for maximum binding in the absence of competitor. In this assay, in the case of inhibition of the VEGF/VEGFR axis, the CIGB166a antibody fragment was used as a positive control, and an anti-FGF polyclonal antibody was used for the FGF/FGFR axis. The percentage of inhibition of receptor binding to its ligand was calculated as follows: […]
The biological effect of VEGF is a consequence of its binding to two fundamental receptors (VEGFR1 and VEGFR2), so for a polypeptide that binds to VEGF to be effective in the therapeutic setting, it must block these interactions (Shibuya, Cell Structure and Function, 2001: 26: 25-35). The ability of Nb-V1 to compete with receptors 1 and 2 for binding to its ligand (VEGF) was assessed by solid phase ligand competition ELISA, as described above.

[11] = molecular target: T4, CHO-VEGF (hVEGF121 produced in the CHO cell line) (human, UniProt P15692-9 27-147); assay: competition ELISA, coated CHO hVEGF121, competitor biotinylated CIGB166a
T4 construct: any tag is not described
T4 sequence (looked up): T2 sequence (looked up)
Procedure: (§7) Their displacement from their binding to VEGF could be an indication of the potentiality of the new polypeptides to mediate the desired effects in vivo. The ability of anti-VEGF VHH to compete with Bevacizumab antibody and CIGB166a antibody fragment for binding to its ligand was assessed by a variation of the solid phase ligand competition ELISA as described. 96-well plates (NUNC, Germany) were coated with 1 μg/mL hVEGF121, produced in the CHO cell line. Serial dilutions of purified VHHs were added, from 15,000 nM to 1,200 nM.
(§8) Biotinylated Bevacizumab or biotinylated-CIGB166a were then added, diluted in blocking solution to a final concentration of 2.3 ng/mL and 14.3 ng/ml, respectively. To detect the binding of biotinylated antibodies, streptavidin conjugated to HRP was added. The wells incubated with Biotinylated Bevacizumab or biotinylated-CIGB166a, without the addition of the antibody fragments, were taken as reference of maximum binding in the absence of competitor. In this assay, the Fc-VEGFR2 receptor chimera was used as a positive control. The percentage of inhibition of the binding of Bevacizumab, CIGB166a or VEGFR2 to its ligand was calculated as described above in the Example 1.

[12] = molecular target: T4, CHO-VEGF (hVEGF121 produced in the CHO …); assay: competition ELISA, coated CHO hVEGF121, competitor biotinylated Bevacizumab
Procedure: as §7, §8

[13] = molecular target: T2, GST-hVEGF121; assay: ELISA, coated antigen
Procedure: as §1, §2, §3

[14] = molecular target: T1, Recombinant human bFGF; assay: ELISA, coated human bFGF
Procedure: as §4
(§9) Specific binding to bFGF was evaluated as described in the bFGF recognition ELISAs of the Example 1. […] As in the case of Nb-V1, no recognition of GST or VEGF proteins was observed, thus reinforcing the evidence of the specificity of the binding of the Nb-F3 fragment to its antigen.

[15] = molecular target: T5, Mouse bFGF (mouse, UniProt P15655 10-154, limits assumed); assay: ELISA, coated mouse bFGF
T5 construct: Bought (SinoBiological); also called mFGF-2
Procedure: as §4, §9

[16] = molecular target: T1, Recombinant human bFGF; assay: ELISA, coated human bFGF; remark: listed apart in the source
Procedure: as §4
SEQ ID NO: 18 and SEQ ID NO: 19, and the bivalent Nb-VV6 and Nb-FF2, with sequences identified as SEQ ID NO: 20 and SEQ ID NO: 21, were expressed and purified as described in the Example 1. In all cases, the purity and identity of the proteins were verified by SDS-PAGE 12% and anti-polyhistidine Western Blot. […] The experimental mass of the polypeptides and the arrangement of the disulfide bridges were checked by ESI/MS-MS. The experimental and theoretical mass, for each polypeptide coincided, with errors less than 0.0015% in all cases, and the formation of intramolecular bridges between C22-C101 and C168-C247 was verified. […] The biological activity of the polypeptides was evaluated by ELISA for recognition of the VEGF and bFGF antigens, and by their ability to displace VEGF and bFGF binding to their respective VEGFR2 and FGFR1 receptors. […] Similarly, it was shown that the ability to displace the binding of antigens by their receptors was not affected.

[17] = molecular target: T1, Recombinant human bFGF; assay: competition ELISA, coated bFGF, competitor Fc-FGFR1
Procedure: as §6

[18] = molecular target: T1, Recombinant human bFGF; assay: ELISA, coated bFGF
Procedure: as §1, with “The plates were incubated for 1 hour at 37° C. and after several washes, the monoclonal antibody 9E10, specific for c-myc, was added. After” for “After”
SEQ ID NO: 18 and SEQ ID NO: 19, and the bivalent Nb-VV6 and Nb-FF2, with sequences identified as SEQ ID NO: 20 and SEQ ID NO: 21, were expressed and purified as described in the Example 1. In all cases, the purity and identity of the proteins were verified by SDS-PAGE 12% and anti-polyhistidine Western Blot. […] The experimental mass of the polypeptides and the arrangement of the disulfide bridges were checked by ESI/MS-MS. […] The biological activity of the polypeptides was evaluated by ELISA for recognition of the VEGF and bFGF antigens, and by their ability to displace VEGF and bFGF binding to their respective VEGFR2 and FGFR1 receptors. […] In agreement with the increase in recognition, a decrease in the KD of the fragments was observed, calculated according to the methodology described by Beatty et al (Beatty J D, Beatty B G, Vlahos W G. J Immunol Methods. 1987 Jun. 26;100(1-2):173-9).

Sequence of VEGF (soluble stimulus added to cell cultures) (P15692 whole entry): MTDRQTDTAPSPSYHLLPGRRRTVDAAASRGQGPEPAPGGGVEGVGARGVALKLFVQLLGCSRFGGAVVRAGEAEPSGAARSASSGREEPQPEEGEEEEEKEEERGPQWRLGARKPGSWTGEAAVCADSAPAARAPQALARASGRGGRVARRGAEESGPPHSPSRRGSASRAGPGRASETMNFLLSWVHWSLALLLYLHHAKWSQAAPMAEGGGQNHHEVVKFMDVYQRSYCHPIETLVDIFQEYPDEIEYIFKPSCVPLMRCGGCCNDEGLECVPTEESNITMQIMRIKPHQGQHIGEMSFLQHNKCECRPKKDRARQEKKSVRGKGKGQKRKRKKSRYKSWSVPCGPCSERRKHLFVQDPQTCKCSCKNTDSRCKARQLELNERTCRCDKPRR
T1 sequence (P09038 143-288 limits assumed): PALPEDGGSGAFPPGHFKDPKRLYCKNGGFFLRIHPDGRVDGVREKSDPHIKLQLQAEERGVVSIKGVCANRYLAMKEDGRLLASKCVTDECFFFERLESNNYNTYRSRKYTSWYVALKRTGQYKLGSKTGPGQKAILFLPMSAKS
T5 sequence (P15655 10-154 limits assumed): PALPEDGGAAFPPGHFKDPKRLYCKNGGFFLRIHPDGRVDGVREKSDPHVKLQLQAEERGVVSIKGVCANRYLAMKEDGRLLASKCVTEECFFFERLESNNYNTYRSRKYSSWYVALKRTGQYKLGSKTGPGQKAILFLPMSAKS

binding result [1]: no binding
fold lower EC50 than Nb-E7 [2]: 3 fold
EC50 [3]: 4.08 nM
IC50, proliferation of HDMEC cells +VEGF (5 ng/ml) [4]: 116 nM
IC50, proliferation of HDMEC cells +bFGF (10 ng/ml) [5]: > 6000 nM
PD1 expression (%) in CD8+ cells treated with VEGF, VHH 1 µg/mL [6]: 64%
PD1 expression (%) in CD8+ cells treated with VEGF, VHH 5 µg/mL [6]: 58%
PD1 expression (%) in CD8+ cells treated with VEGF, VHH 10 µg/mL [6]: 38%
CD86 (MFI) on dendritic cells +VEGF +LPS, VHH 1 µg/mL [7]: 1560 MFI
CD86 (MFI) on dendritic cells +VEGF +LPS, VHH 5 µg/mL [7]: 3000 MFI
CD86 (MFI) on dendritic cells +VEGF +LPS, VHH 10 µg/mL [7]: 17200 MFI
MHCII (MFI) on dendritic cells +VEGF +LPS, VHH 1 µg/mL [7]: 4700 MFI
MHCII (MFI) on dendritic cells +VEGF +LPS, VHH 5 µg/mL [7]: 5200 MFI
MHCII (MFI) on dendritic cells +VEGF +LPS, VHH 10 µg/mL [7]: 17000 MFI
EC50 [8]: 4.45 nM
EC50 [9]: 4.73 nM
IC50 [10]: 28.6 nM
IC50 [11]: 67.5 nM
IC50 [12]: 931 nM
B1: Nb-V1 (VHH)
VHH: QVQLVESGGGLVQPGGSLRLSCAASGNSAEDRLYNSYTWFRQAPGQGLEAVAAISSHFSAGLTYYADSVKGRFTISRDNSKNTLYLQMNSLRAEDTAVYYCEITSHASHNDAWSTPRTVWGQGTLVTVSS
notes: carries the C-terminal c-myc tracer peptide and histidine tag; also called VHH Nb-V1

binding result [13]: no binding
fold increase in recognition against Nb-A5 [14]: 5 fold
EC50 [15]: 11.5 nM
IC50, proliferation of HDMEC cells +VEGF (5 ng/ml) [4]: > 6000 nM
IC50, proliferation of HDMEC cells +bFGF (10 ng/ml) [5]: 121 nM
EC50 [16]: 11.3 nM
IC50 [17]: 134 nM
B2: Nb-F3 (VHH)
VHH: QVQLVESGGGLVQPGGSLRLSCAASGTEDGRLLTLGGSWFRQAPGQGLEAVAAIGAGDRGGATYYADSVKGRFTISRDNSKNTLYLQMNSLRAEDTAVYYCTALYERQPQLAATKVARKWGQGTLVTVSS
notes: carries the C-terminal c-myc tracer peptide and histidine tag; also called VHH Nb-F3

fold decrease of EC50 against Nb-F3 [18]: 2 fold
IC50, proliferation of HDMEC cells +VEGF (5 ng/ml) [4]: > 6000 nM
IC50, proliferation of HDMEC cells +bFGF (10 ng/ml) [5]: 50 nM
EC50 [16]: 5.86 nM
IC50 [17]: 53.5 nM
B3: Nb-FF2 (VHH)
chain: QVQLVESGGGLVQPGGSLRLSCAASGTEDGRLLTLGGSWFRQAPGQGLEAVAAIGAGDRGGATYYADSVKGRFTISRDNSKNTLYLQMNSLRAEDTAVYYCTALYERQPQLAATKVARKWGQGTLVTVSSAHHSEDPSSKAPKAPAQVQLVESGGGLVQPGGSLRLSCAASGTEDGRLLTLGGSWFRQAPGQGLEAVAAIGAGDRGGATYYADSVKGRFTISRDNSKNTLYLQMNSLRAEDTAVYYCTALYERQPQLAATKVARKWGQGTLVTVSSAAAGSEQKLISEEDLNSHHHHHH
notes: Bivalent monospecific tandem VHH for bFGF; with c-myc and histidine tag
